Results on 18 molecules are retold here after US20120316071A1 (published 2012).

To fix the notation:
B1: Fab VH1-46_IGHD6-6*01_IGHJ1*01 & L6_IGKJ1*01 (Fab, V domains shown)
VH: QVQLVQSGAEVKKPGASVKVSCKASGYTFTSYYMHWVRQAPGQGLEWMGIINPSGGSTSYAQKFQGRVTMTRDTSTSTVYMELSSLRSEDTAVYYCAREEYSSSSAEYFQHWGQGTLVTVSS
VL: not shown
notes: Fab expressed in E. coli; VH was cloned into Plasmid A (heavy chain CH1 constant region, His6 and Flag tags) and VL into Plasmid C (kappa CL); also called parental; wildtype
B2: Fab VH1-46_IGHD6-6*01_IGHJ1*01 S102A/S103P/S104F/H111F I51V/N52L/S54T/G56H (APFF VLTH) & L6_IGKJ1*01 S28N/S30D/S31H S52L/A55S (NDH LS) (Fab, V domains shown)
VH: B1 VH with I51V, N52L, S54T, G56H, S102A, S103P, S104F, H111F
VL: EIVLTQSPATLSLSPGERATLSCRASQNVDHYLAWYQQKPGQAPRLLIYDALNRSTGIPARFSGSGSGTDFTLTISSLEPEDFAVYYCQQRSNWPPWTFGQGTKVEIKR
notes: Fab with CH1 (Plasmid A, His6 and Flag tags) and kappa CL (Plasmid C); also called H:APFF VLTH & L:NDH LS
B3: Fab VH1-46_IGHD6-6*01_IGHJ1*01 S104F & L6_IGKJ1*01 (Fab, V domains shown)
VH: B1 VH with S104F
VL: not shown
notes: Fab with CH1 (Plasmid A, His6 and Flag tags) and kappa CL (Plasmid C)
B4: Fab VH1-46_IGHD6-6*01_IGHJ1*01 S102A/S103P/S104F (APF) & L6_IGKJ1*01 (Fab, V domains shown)
VH: B1 VH with S102A, S103P, S104F
VL: not shown
notes: Fab with CH1 (Plasmid A, His6 and Flag tags) and kappa CL (Plasmid C); also called H:APF & L:wt; APF triple mutant
B5: Fab VH1-46_IGHD6-6*01_IGHJ1*01 S102A/S103P/S104F/H111Y (APFY) & L6_IGKJ1*01 (Fab, V domains shown)
VH: B1 VH with S102A, S103P, S104F, H111Y
VL: not shown
notes: as for B3
B6: Fab VH1-46_IGHD6-6*01_IGHJ1*01 S102A/S103P/S104F (APF) & L6_IGKJ1*01 S31K (Fab, V domains shown)
VH: B1 VH with S102A, S103P, S104F
VL: B2 VL with N28S, D30S, H31K, L52S, S55A
notes: as for B3
B7: Fab VH1-46_IGHD6-6*01_IGHJ1*01 S102A/S103P/S104F/H111F (APFF) & L6_IGKJ1*01 (Fab, V domains shown)
VH: B1 VH with S102A, S103P, S104F, H111F
VL: not shown
notes: Fab with CH1 (Plasmid A, His6 and Flag tags) and kappa CL (Plasmid C); also called H:APFF & L:wt
B8: Fab VH1-46_IGHD6-6*01_IGHJ1*01 S102A/S103P/S104F/H111F I51V/N52L/S54T/G56H (APFF VLTH) & L6_IGKJ1*01 S28N/S30D/S31H (NDH) (Fab, V domains shown)
VH: B1 VH with I51V, N52L, S54T, G56H, S102A, S103P, S104F, H111F
VL: B2 VL with L52S, S55A
notes: Fab with CH1 (Plasmid A, His6 and Flag tags) and kappa CL (Plasmid C); also called H:APFF VLTH & L:NDH
B9: Fab VH1-46_IGHD6-6*01_IGHJ1*01 S102A/S103P/S104F/H111F G56H (APFF G56H) & L6_IGKJ1*01 (Fab, V domains shown)
VH: B1 VH with G56H, S102A, S103P, S104F, H111F
VL: not shown
notes: as for B3
B10: Fab VH5-51_IGHD5-18*01>3_IGHJ4*01 G100K/G104T G24T/S28R/G35V & V3-4_IGLJ1*01 V91L/S96P S52F (Fab, V domains shown)
VH: EVQLVQSGAEVKKPGESLKISCKTSGYRFTSYWIVWVRQMPGKGLEWMGIIYPGDSDTRYSPSFQGQVTISADKSISTAYLQWSSLKASDTAMYYCARRKYSYTYDYFDYWGQGTLVTVSS
VL: QTVVTQEPSFSVSPGGTVTLTCGLSSGSVSTSYYPSWYQQTPGQAPRTLIYFTNTRSSGVPDRFSGSILGNKAALTITGAQADDESDYYCLLYMGPGISYVFGTGTKVTVL
notes: Fab expressed in E. coli; heavy chain vector adds CH1 with His6 and Flag tags, light chain vector adds lambda CL; also called H:KT TRV & L:LP S52F
B11: Fab VH5-51_IGHD5-18*01>3_IGHJ4*01 G100K/G104T G24T/S28R/G35V & V3-4_IGLJ1*01 V91L/S96P T53F (Fab, V domains shown)
VH: B10 VH
VL: B10 VL with F52S, T53F
notes: Fab expressed in E. coli; heavy chain vector adds CH1 with His6 and Flag tags, light chain vector adds lambda CL; also called H:KT TRV & L:LP T53F
B12: Fab VH5-51_IGHD5-18*01>3_IGHJ4*01 G100K/G104T G24T/S28R/G35V & V3-4_IGLJ1*01 V91L/S96P T53E (Fab, V domains shown)
VH: B10 VH
VL: B10 VL with F52S, T53E
notes: Fab expressed in E. coli; heavy chain vector adds CH1 with His6 and Flag tags, light chain vector adds lambda CL; also called H:KT TRV & L:LP T53E
B13: Fab VH5-51_IGHD5-18*01>3_IGHJ4*01 G100K/G104T G24T/S28R/G35V & V3-4_IGLJ1*01 V91L/S96P S52T (Fab, V domains shown)
VH: B10 VH
VL: B10 VL with F52T
notes: Fab expressed in E. coli; heavy chain vector adds CH1 with His6 and Flag tags, light chain vector adds lambda CL; also called H:KT TRV & L:LP S52T
B14: Fab VH5-51_IGHD5-18*01>3_IGHJ4*01 G100K/G104T G24T/S28R/G35V & V3-4_IGLJ1*01 V91L/S96P T53S (Fab, V domains shown)
VH: B10 VH
VL: B10 VL with F52S, T53S
notes: Fab expressed in E. coli; heavy chain vector adds CH1 with His6 and Flag tags, light chain vector adds lambda CL; also called H:KT TRV & L:LP T53S
B15: Fab VH5-51_IGHD5-18*01>3_IGHJ4*01 G100K/G104T G24T/S28R/G35V & V3-4_IGLJ1*01 V91L/S96P T53V (Fab, V domains shown)
VH: B10 VH
VL: B10 VL with F52S, T53V
notes: Fab expressed in E. coli; heavy chain vector adds CH1 with His6 and Flag tags, light chain vector adds lambda CL; also called H:KT TRV & L:LP T53V
B16: Fab VH5-51_IGHD5-18*01>3_IGHJ4*01 G100K/G104T G24T/S28R/G35V & V3-4_IGLJ1*01 V91L/S96P S52L (Fab, V domains shown)
VH: B10 VH
VL: B10 VL with F52L
notes: Fab expressed in E. coli; heavy chain vector adds CH1 with His6 and Flag tags, light chain vector adds lambda CL; also called H:KT TRV & L:LP S52L
B17: Fab VH5-51_IGHD5-18*01>3_IGHJ4*01 G100K/G104T G24T/S28R/G35V & V3-4_IGLJ1*01 V91L/S96P S52G (Fab, V domains shown)
VH: B10 VH
VL: B10 VL with F52G
notes: Fab expressed in E. coli; heavy chain vector adds CH1 with His6 and Flag tags, light chain vector adds lambda CL; also called H:KT TRV & L:LP S52G
B18: Fab VH5-51_IGHD5-18*01>3_IGHJ4*01 G100K/G104T G24T/S28R/G35V & V3-4_IGLJ1*01 V91L/S96P T53H (Fab, V domains shown)
VH: B10 VH
VL: B10 VL with F52S, T53H
notes: Fab expressed in E. coli; heavy chain vector adds CH1 with His6 and Flag tags, light chain vector adds lambda CL; also called H:KT TRV & L:LP T53H

Changes are numbered by the printed parent chain. Names and notes keep the numbering of the source.

The target in the first test is T1, Recombinant Human DLL4 (delta-like protein 4) (human, UniProt Q9NR61 27-524).
T1 construct: Bought recombinant human DLL4 (R&D Systems Cat#1506-D4/CF); also called rHuman DLL4; Delta-like ligand 4
The test is described as follows: SPR, Fab on recombinant human DLL4.
The term Kd denotes a measure of binding affinity in units of concentration. The term koff denotes a measure of how fast the partners let go of each other. A word on the kon: it is a measure of how fast the partners come together. As for B1, the Kd came to 730 nM, the off-rate constant (koff) worked out at 0.101 s⁻¹ and the kon was 163000 M⁻¹ s⁻¹.
The matching figures for B2: 1.7 nM, 0.00109 s⁻¹ and 684000 M⁻¹ s⁻¹.
B3: the Kd is 380 nM, the koff came out at 0.19 s⁻¹ and the kon was 500000 M⁻¹ s⁻¹.
The matching figures for B4: 122 nM, 0.0492 s⁻¹ and 405000 M⁻¹ s⁻¹.
Take B5: the Kd worked out at 93.1 nM, the off-rate constant (koff) turned out to be 0.0317 s⁻¹ and the kon came out at 340000 M⁻¹ s⁻¹.
Consider B6, for which the Kd turned out to be 112 nM, the koff came to 0.0392 s⁻¹ and the kon worked out at 350000 M⁻¹ s⁻¹.
The matching figures for B7: 70.6 nM, 0.03 s⁻¹ and 425000 M⁻¹ s⁻¹.
The matching figures for B8: 2.7 nM, 0.00113 s⁻¹ and 430000 M⁻¹ s⁻¹.
As to B9, the Kd came out at 32.7 nM, the koff is 0.0101 s⁻¹ and the kon is 351000 M⁻¹ s⁻¹.

A further test deals with T2, Recombinant Human DLL4 (delta-like protein 4) (human, UniProt Q9NR61 27-524).
T2 construct: also called rHuman DLL4; Delta-like 4
Briefly: ELISA, DLL4 coated on plate, Fab at 100 nM.
In the case of B10, the “ELISA Signal-blank (100 nM Fab)” value is 0.33.
On to B11, for which the “ELISA Signal-blank (100 nM Fab)” value came to 0.15.
Same read-out and setting: the same measure for B12: 0.09.
As for B13, the “ELISA Signal-blank (100 nM Fab)” value came to 0.34.
Still for that read-out and setting: the same measure for B14: 0.18; for B15: 0.29; for B16: 0.4.
Same read-out and setting: the same measure for B17: 0.53; for B18: 0.14.
